Molecular target: T1, human VTCN1 expressed on cells (293-VTCN1 cells; SKBR3, MX-1 and ZR-75-1 cells that express it naturally) (human, UniProt Q7Z7D3 25-282)
T1 construct: The cDNA was bought from Origene
T1 sequence: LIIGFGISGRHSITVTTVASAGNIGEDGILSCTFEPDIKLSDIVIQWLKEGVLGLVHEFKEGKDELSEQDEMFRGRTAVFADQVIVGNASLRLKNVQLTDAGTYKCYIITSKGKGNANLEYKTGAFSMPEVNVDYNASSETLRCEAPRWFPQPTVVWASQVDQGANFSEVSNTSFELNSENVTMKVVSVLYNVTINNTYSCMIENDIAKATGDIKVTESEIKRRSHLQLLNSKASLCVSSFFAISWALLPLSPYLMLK
Experiment: flow cytometry on live 293-VTCN1 and MX-1 cells, 0.05-10 ug/ml
Protocol: Antibody concentration was determined by OCTET™ using protein G biosensor. 0.05 μg/ml, 0.1 μg/ml, 0.5 μg/ml, 1 μg/ml, 5 μg/ml, 10 μg/ml antibodies were incubated with live cells for 30 min. on ice, unbound antibodies were washed off, and a conjugated anti-mouse 2nd antibody was added to the wells for 15 min. Cells were washed twice with flow buffer and analyzed using MACSQuant Analyzer 10 flow cytometer (Miltenyi Biotec, Bergisch Gladbach, Germany).

Binder | binding result
3C6 (antibody, V domains shown, Recombinant mouse antibody made in CHO cells) VH: QIQLQESGPELKKPGETVKISCKASGYTFTTTGMQWVQKMPGKGFKWIGWINTHSGEPKYADDFKGRFAFSLETSASTAHLQISNLKNEDTATYFCARTSYWYLDVWGAGTTVTVSS VL: DIVMTQSQKFMSTSVGDRVSVTCKASQIVGTNIAWYQQKPGQSPKALIYSASYRNSGVPDRFTGSGSGTDFTLTITNVQSEDLAEYFCQQYNSYPLTFGAGTKLEIK | binds
2C2 (antibody, V domains shown, Recombinant mouse antibody made in CHO cells) VH: QIQLQQSGPELKKPGETVKISCKASGYTFTTAGMQWVQKMPGKGFKWLGWINTHSGEPKYADDFKGRFAFSLETSASTAYLQINNLKNEDTATYHCARTSYWYLDIWGAGTTVTVSS VL: DIVMTQSQKFMSTSVGDRVSVTCKASQNVGTNVAWYQQKPGQSPKALIYSASYRCSGVPDRFTGSGSGTDFTLTISNVQSEDLAEYFCQQYNSYPLTFGAGTKLEIK | binds
7E12 (antibody, V domains shown, Recombinant mouse antibody made in CHO cells) VH: QVQMKESGPELKKPGETVKISCKASGYTFTTTGMQWVQKMPGKGFKWIGWINTHSGEPKYADDFKGRFAFSLETSASTAHLQISNLKNEDTATYFCARTSYWYLDVWGAGTTVTVSS VL: DIVMTQSQKFMSTSVGDRVSVTCKASQIVGTNIAWYQQKPGQSPKALIYSASYRNSGVPDRFTGSGSGTDFTLTITNVQSEDLAEYFCQQYNSYPLTFGAGTKLEIK | binds
7C9 (antibody, V domains shown, Recombinant mouse antibody made in CHO cells) VH: QIQLQESGPGLVQPSQSLSITCTVSGFSLTSYGVQWVRQSPGKGLEWLGVIWSSGSTDYNAAFISRLSISKDNSKSQVFFKMNSLQADDTAIYYCARDITTIVEGFAYWGQGTLVTVSA VL: NIVMTQSPKSMSMSVGERVTLRCKASENVNTYVSWYQQKPEQSPKLLIYGASNRYTGVPDRFTGSGSATDFTLTISSVQAEDLADYHCGQSYSYPFTFGSGTKLEIK | binds
1A2 (antibody, V domains shown, Recombinant mouse antibody made in CHO cells) VH: QVQLQQSGPGLVQPSQSLSITCTVSGFSLTSYGVHWVRQSPGKGLEWLGVIWSGGSTDYNAAFISRLSISKDNSKSQVFFKMNSLQADDTAIYYCARDITTIVEGFAYWGQGTLVTVSA VL: NIVMTQSPKSMSMSVGERVTLSCKASENVGTYVSWYQQKPEQSPKLLIYGASNRYTGVPDRFTGSGSATDFTLTISSVQAEDVTDYHCGQTYSYPFTFGSGTKLEIK | binds
1C3 (antibody, V domains shown, Recombinant mouse antibody made in CHO cells) VH: QIQLQQSGPGLVQPSQSLSITCTVSGFSLTSYGVQWVRQSPGKGLEWLGVIWSSGNTDYNAAFISRLTITKDNSKSQIFFKMNSLQADDTAIYYCARDITTIVEGFAYWGQGTLVTVSA VL: NIVMTQSPKSMSMSVGERVTLSCKASENVGTYVSWYQQKPEQSPKLLIYGASNRYTGVPDRFTGSGSATDFTLTISSVQAEDLADYHCGQTYSYPFTFGSGTKLEIK | binds
4B9 (antibody, V domains shown, Recombinant mouse antibody made in CHO cells) VH: EVQLQESGPGLVQPSQSLSITCTVSGFSLTSYGVHWVRQSPGKGLEWLGVIWSSGSTDYNAAFISRLSISKDNSKSQVFFKIHSLQADDTAIYYCARDITTIVEGFAYWAQGTLVTVSA VL: NIVMTQSPKSMSMSVGERVTLICKASENVGTYVSWYQQKPEQSPKLLIYGASNRYTGVPDRFTGSGSATDFTLTISSVQAEDLADYHCGQTYSYPFTFGSGTKLEIK | binds
7D9 (antibody, V domains shown, Recombinant mouse antibody made in CHO cells) VH: QIQLKESGPGLVQPSQSLSITCTVSGFSLTSYGVQWVRQSPGKGLEWLGVIWSGGSTDYNAAFISRLSISKDNSKSQVFFKMNSLQADDTAIYYCARDITTIVEGFAYWAQGTLVTVSA VL: NIVMTQSPKSMSMSVGERVTLSCKASENVGTYVSWYQQKPEQSPKLLIYGASNRYTGVPDRFTGSGSATDFTLTISSVQAEDLADYHCGQTYSYPFTFGSGTKLEIK | binds
